# Experimental data taken from patent US20260199504A1.
# Target: human Nectin-4 on Nectin4-CHOK1 cells (CHO-K1 cell strain highly expressing Nectin-4) (human) (UniProt Q96NY8)
# Assay: cell-based or functional assay
# human Nectin-4 on Nectin4-CHOK1 cells (CHO-K1 cell strain highly expressing Nectin-4) (human), sequence (Q96NY8 32-510 limits assumed): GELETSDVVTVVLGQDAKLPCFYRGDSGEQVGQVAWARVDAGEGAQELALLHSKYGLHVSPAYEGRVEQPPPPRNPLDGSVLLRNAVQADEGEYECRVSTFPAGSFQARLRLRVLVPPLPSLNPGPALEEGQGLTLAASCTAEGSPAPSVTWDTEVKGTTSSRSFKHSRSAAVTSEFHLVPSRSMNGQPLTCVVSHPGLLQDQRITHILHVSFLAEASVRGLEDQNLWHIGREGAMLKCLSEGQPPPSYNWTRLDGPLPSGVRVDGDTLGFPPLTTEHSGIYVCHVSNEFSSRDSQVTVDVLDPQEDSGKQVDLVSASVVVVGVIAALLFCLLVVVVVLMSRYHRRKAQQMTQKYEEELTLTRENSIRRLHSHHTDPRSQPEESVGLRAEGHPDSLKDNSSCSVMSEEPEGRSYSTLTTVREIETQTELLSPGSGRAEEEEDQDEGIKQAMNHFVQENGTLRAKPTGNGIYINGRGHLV
substance,measurement,value
C25-IgG1 (IgG1 isotype negative control) (antibody),"FITC-A signal value, 5 nM Ab + 15 nM pHrodo (pHrodo endocytosis assay, Nectin4-CHOK1 clone 3)",129
same,"FITC-A signal value, 20 nM Ab + 60 nM pHrodo (pHrodo endocytosis assay, Nectin4-CHOK1 clone 3)",154
